# Results published in the nanobody polyreactivity screen of Harvey et al. (2022).
# Test: yeast display, Sf9 membrane polyspecificity reagent, FACS + sequencing; frameworks hold sequencing errors
# In short: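 Polyreactivity labels are assigned by the sorting gate from which each nanobody was recovered. The gates were low and high (top ~1%), set on anti-HA fluorescence for expression and streptavidin fluorescence for reagent binding. Before sorting, galactose-induced (36–48 hours) yeast display cells were stained for 1 hour at 4 °C with 10% biotinylated, detergent-solubilized Sf9 membrane reagent.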
row,Sequence,polyreactivity (PSR sort gate)
1,QVQLVESGGGLVQAGGSLRLSCAASGLTFTSYAMGWYRQAPGKERELVAAIDWSGGRTYYADSVKGRFTISRDNAKNTVYLQMNSLKPEDTAVYYCYKYRYQWPYRRFDYWGQGTQVTVSS,high polyreactivity
2,QVQLVESGGGLVQAGGSLRLSCAASGRTFYYNAMGWYRQAPGKEMELVAVITRGSTYYADSVKGRFTISRDNAKNTVYLQMNSLKPEDTAVYYCAKYRHYHRGYDYWGQGTQVTVSS,high polyreactivity
3,QVQLVESAAGLVQAGGSLRLSCAASGRTFQYNAIGWYRQAPGKETELVAAISSSGGSTYYADSVKGRFTISRDNAKNTVYLQLNSLKPEDTAVYYCNAYSQSWNFYGDGDYWGQGTQVTVSS,low polyreactivity
4,QVQLVESGGGLVQAGGSLRLICAASGYTFPYAMGWYRQAPGKERELVAAISRSGASTYYADSVKGRFTISRDNAKNTVYLQMNSLKPEDTAVYYCATRRVYSTRVKFYYWGQGTQVTVSS,high polyreactivity
5,QVQLVESGGGLVQAGGSLRLSCAASGNIFPYNAMAWYRQAPGKERELVATISSGGSTYYADSVKGRFTISRDNAKNTVYLQMNSLKPEDTAVYYCAARGRYPYRYGYWGQGTQVTVSS,high polyreactivity
6,QVQLVESGGGLVQAGGSRRLICAASGITFFAYTLGWYRQAPGKERELVASITGSSGGTYYADSVKGRFTISRDNAKNTVYLQMNSLKPEDTAVYYCATAYGRKLLLRGFYDQSHDMDYWGQGTQVTVSS,low polyreactivity
7,QVQLVESGGGLVQAGGSLRLSCAASGSTFLDYAMGWYRQAPGKERELVAAITSGGSTYYADSVKGRFTISRDNAKNTVYLQMNSLKPEDTAVYYCAAEQTQLYSFGWDEYWGQGTQVTVSS,low polyreactivity
8,QVQLVESGGGLVQAGGSLRLSCAASGGTIVWNAMGWYRQAPGKEREFVAAITSSGGSTYYADSVKGRFTISRDNEKNTVYLQMNSLKPEDTAVYYCNVDTHSSYEFNSWGQGTQVTVSS,low polyreactivity
9,QVQLVESGGGLVQAGGTLRLSCAASGSISIRNAMGWYRQAPGKERELVAAITYSGGSTYYADSVKGRFTISRDNAKNTVYLQMNSLKPEDTAVYYCAKDHYRFRYDYWGQGTQVTVSS,low polyreactivity
10,QVQLEESGGGLVQAGGSLRLSCAASGLIFARNAMGWYRQAPGKERELVAAISKRGGSTFYADSVKGRFTISRDNAKNTVYLQMKSLNPEDTAVYYCNARSSETWHGDYWGQGTQVTVSS,high polyreactivity
11,QVQLVESGGGLVQAGGSLRLSCAASGFTFYFYAMGWYRQAPGKERELVATITIGGRTNYADSVKGRFTISRDNAKNTVYLQMNSLKPEDTAVYYCAAAYLWISRYSGYDYWGQGTQVTVSS,high polyreactivity
12,QVQLVESGGGLVQAGGRLRLSCAASGRTFYVYAMGWYRQAPGKERELVAAISWTGGSTYYADSVKGRFTISRDHAKNTVYLQMNSLKPEDTAVYDCAVDVYRRDYVAYEYWGQGTQVTVSS,high polyreactivity
13,QVQLVESGGGLVQAGGSLRLSCAASGRIFGVNAMGRYRQAPGKERELVAAIDWSDGSTYYADSVKGRFTISRDNAKNTVYLQMNSLKPEDTAVYYCAALPSFLAAQYGDDYWGQGTQVTVSS,low polyreactivity
14,QVQLVESGGGLVQAGGSLRLSCAASGSTFGNNAMGWYRQAPGKERELVATIDDTTVSTNYADSVKWRFTISRDNAKNTVYLQMNSLKPEDTAVYYCAAPVGNYGSFDYWGQGTQVTVSS,low polyreactivity
15,QVQLVESGGGLVQAGGSLRLSCAASGIIYYENTMGWYRQAPGKERELVAPINSGGSTYYADCVKGRFTISRDNAKNTVYLQMNSLKPEDTAVYYCAADDYSGLYYSSTYRYEYWGQGTQVTVSS,low polyreactivity
16,QVQLVESGGGFVQAGGSLRLSCAASGSTFGPYAMGWSSQAPGKDRELVAGISSGGSTYYADSVKGRFTISRDNAKNTVYLQMNSLKPEDTAVYYCATRYLYRGYSYFAYDYWGQGTQVTVSS,low polyreactivity
17,QVPLVESGGGLVQAGGSLRLSCDASGSTFFPNAMGWYRQAPGKEREFVAAISWSGGRTYYADSVKGRFTISRDNAKNTVYLQMNSLKPEDTAVYYCAARLYTVRYGYWGQGTQVTVSS,high polyreactivity
18,QVQHVESGGGLVQAGGSLRLSCAASGIIFSYNAMGWYRQAPGKERELVAAISSGGRTYYADSVKGRFTISRDNAKNTVYLQMNSLKPEDTAVYYCATTSPHRLYGYYYDYWGQGSQVTVSS,high polyreactivity
19,QVQLVESGGGLVQAGGSLRLSCDASGRIFAYYTMGWNRQAPGKERELVAAINQSGGSTYYADSVKGRITISRDNAKNTDYLQMNILKPEDTAVYYCAAKRYSMYARRYAYVYWGQVTQVTVSS,low polyreactivity
20,QVQLVESGGGLVQAGGSLRLSCAASGSTFYGYAMGWYRQAPGKERELVAVISWRGTSTYYADSVKGRFTISRDNAKNTVYLQMNSLKPEDTAVYYCAARGLWPYDYWGQGTQVTVSS,low polyreactivity
21,QVQLVESGGGLVQAGGSLRLSCAAAGSIFRINDMGWYRQATGKERELVAAITFSGGSTYADSVKGRFTISRDNAKNTVYLQMNSLKPEDTAVYYCNADGAYWTDYYLYDYWGHGTQVTVSS,low polyreactivity
22,QVQLVESGGGLVQAGGSLRLSCAASGLTFPYNVMGWYRQAPGKERELVASITSVGTTDYADSVKGRFTISRDNAKNTVSVLMNSLKPEVTAVYYCAADVTLFYWWYGKEDYDYWGQGTQVTVSS,low polyreactivity

row,Sequence,polyreactivity (PSR sort gate)
1,QDQLVESAGGLLQAGGSLRLSCAASGSTFKYNAMGWYRQAPGKERELVDSITRGGNTNYADSVKGRFTISRDNAKNTVYLLMNSLKTEDTAFYYCAAQLMRDLRSPYSYNYWGQGTQVTVSS,low polyreactivity
2,QVQLVESVGGLVQAGGSLRLSCAASGRIFRYYAMGWYRQAPGKERELVAAISISGGRTYYADSVKGRFSISRDNAKNTVYLQMNSLKPEDTAVYYCNADPYWYDRDKKYDYWGQGTQVTVSS,high polyreactivity
3,QVQLVESGGGLVQAGGSLRLSCAASGFTFKGYAMGWYRQAPGKERELVAGITSGGRTYYADSVKGRFTISRDNAKNTVYLQMNSLKPEDTAVYYCAAVHYVAYYGYDYWGQGSQVTVSS,high polyreactivity
4,QVQLVESGGGLVQAGGSLRLSCAASGLTLVTYAMGSYRQAPGKERELVAAINSGGSTNYADSVKGRFTISRDNAKNTVYLQMNSLKPEDTAVYYCNADRVSPATYDYWGQGTQVTVSS,low polyreactivity
5,QVQLVESWGGLVQAGGSLRLSCAASGLIIYTYAMGWYRQAPGKERELVADINRSDGSTYYADSVKGRFTISRDNAKNTVYLQMNSLKPEDTAVYYCAVVGPYYSRFGGRYYYWGQGTQVTVSS,low polyreactivity
6,QDQLVESGGGLVQAGGSLRLSCAASGSIFAGYAMGWYRQAPGKESELVAAITSGGRTYYADSVKGRFTISRDNAKNTVYLQMNSLKPEDTAVYYCAKRWYTKTGYDYWGQGTQVTVSS,high polyreactivity
7,QVQLVESGGGLVQAGGSLRLSCAASGSTFQYNAMGWYRQAPGKERELVAVISGSGSRTYYADSVKGRFTISRDNSKNTVYLQMNSLKPEDTAVYYCAKQRGGQPRSSTYYYWGQGTQVTVSS,high polyreactivity
8,QVQLVESGGGLVQAGGSLRLSCAASGSIFYKNAMGWYRQAPGKERELVAAISYSGGSTYYADSVKGRFTISRDNAKNTVYLQMNSLKPEDTAVYYCAAKGGAWGQGTQVTVSS,high polyreactivity
9,QVQLVESGGALVQAGGSLRLSCAAYGRIFLVYAMGWSRQAPGKEREMVAAISWSTGSTYYADSVKGRFTISRDNAKNTVYLQMNSLKPEDTAVYYCAAEPELDEYEHDYWGQGTQVTVSS,low polyreactivity
10,QVQLVESGGGLVQAGGSLRLSCAASGRIFYYYAMGWYREAPGKEREFVARNRSSGGSTYADSVKGRFTISRDNAKNTVYLQMNSLKPEDTAVYYCARDGYTAVEYDYWGQGTQVTVSS,low polyreactivity
11,QVQLEESGGGLVQAGGSLRLSCAASGLILRTYGMGWYRQAPGKERELVAVISSGGSTYYADSVKGRFTISRDNAKNTVYLQMNSLKPEDTAVYYCAVRSSWYEGDYWGQGTQVTVSS,low polyreactivity
12,QVQLVESGGGLVQAGGSLRLSCAASGFTFDRYAMGWYRQAPGKERELVAAITSRGGRTYYADSVKGRFTISRDNAKNTVYLQMNSLKPEDTAVYYCNAVYSQSGYFYRFDYWGQVTQVTVSS,high polyreactivity
13,QVQLVESAAGLVQAGGSLRLSGAASGRIFRYYAMGCYRQAPGKEREFVAGITWSGGRTYYADSVKGRFTISRANAKNTVYLQMNTLKREDTAVYYCAADGWGYSFQWQDHDYWGQGTQVTVSS,low polyreactivity
14,QVQLVESGGGLVQAGGSLRLSCAASGIYAMGWYRQAPGKERELVAAIRWSGGSTYYADSVKGRFTISRDNAKNTVYLQMNSLKPEDTAVYYCAKRLRPGGYWYDYWGQGTQVTVSS,high polyreactivity
15,QVQLQERGGGLVQAGGSLRLSCAASCTIFRFRYMGGHRQAPGKERELVAGINGGTTTYYADSEIGRFTMSRDNAKNTLYLQMNSLKPDDTAVYNCAAGDSRLTYYDYWGQGTQVTVSS,low polyreactivity
16,QVQLVESGGGLVQAGGSLRLSCAASGSILFVYAMGWYRQAPGKERELVAGINSSGTSTYADSVKGRFTISRDNAKNTVYLQMNSLKPEDTAVYYCAARWFYYRWAYDYWGQGTQVTVSS,low polyreactivity
17,QVQLVESGGGLVQAGGSLRLSCGASGRTIDYNGMGWYRQEPGKERELVSVISSSGGSTFYADSVKGRFTISRDNAKNTVYLQMNSLEPEDTAVYYCAALHVGHNYYNSGFYYWGQGTQVTVSS,low polyreactivity
18,QVQLVESGRGLVQAGGSLRLSCAASGRIFKRYTMGWYRPAPGKETELVAGITFSGGSTYYADSVKGRFTISRDNAKNTVYLQMNSLKREDTAVYYCAADDAYYTYQYDYWGQGTQVTVSS,low polyreactivity
19,QLQLHESGGGLVQAGGCLSCTASGTIFGQGDMGWYRQAPGKERELVATINDGASTYYADSVKGRFTISRDKAKNTVYLKKNSLKPDDNAVYYCAVFTDITTYFGYWGQGTQVTVSS,low polyreactivity
20,QVQLVESGGGLVQAGGSLRLSCAAYGRIFKYYVMGWYRPAPGKERELVATISSGSGTNYADSVKGRFTISRDNAKNTVYLQMNSLKPEDTAVYYCAARWTPRVRGYNYWGQGTLVTVSS,high polyreactivity
21,QDQLVESGGGLVQAGGSLRLSCAASGRTFVSYAMGWYRQAPGKERELVAGISWSGDSTYYADSEKGRFTISRDNAKNTVYLQMNSLKPEDTAVYYCAAVQRTDRSAHYSWGQGTQVTLSS,low polyreactivity
